This test relates to isolation reared animals. Nature of the test: Prepulse inhibition of startle in isolation reared animals (ICV midkine). In kind it is in vivo, male Wistar rats. The settings on record: isolation reared rats, four daily ICV injections of midkine 2 μg/day, compared to vehicle-treated animals. The method, then:
Isolation-reared animals (isolated animals) were housed singly in non-soft bottom cages (22.5 cm×34.5 cm×17 cm), from time of weaning (postnatal day 25, P25) until completion of behavioral testing. A standard 12 hour light/dark cycle was observed and food and water was provided ad libitum. Noise and visual stimuli were kept to an absolute minimum as described previously by Geyer et al., 1993. Socially reared animals (social animals) were housed in groups of 4 from time of weaning until surgical implantation of a guide cannula on P80, there after they were housed singly. […] The startle apparatus consisted of a sound attenuating chamber (54.6×50.8×30.5 cm), a startle platform which measured the startle response, and an audio stimulator, controlled by the startle reflex software (MED Associates Inc.). […] The resulting movement of the rats was measured during 100 ms after startle stimulus onset, and then rectified, amplified and analyzed by computer and the maximal response and average response over the 100 ms period determined. Baseline startle amplitude was determined as the mean response of all startle trials. The percent prepulse inhibition was determined according to the following formula: 100-([startle amplitude at prepulse trial/startle amplitude at startle trial]×100%). The effect on baseline startle amplitude was analyzed by a one-way analysis of variance (ANOVA). […]

“Also recorded” adds a separate entry of the source.

B1: midkine (protein, UniProt P21741 21-143, looked up)
Midkine: VAKKKDKVKKGGPGSECAEWAWGPCTPSSKDCGVGFREGTCGAQTQRIRCRVPCNWKKEFGADCKYKFENWGACDGGTGTKVRQGTLKKARYNAQCQETIRVTKPCTPKTKAKAKAKKGKGKD
As to B1, the “prepulse inhibition (PPI) of startle” value is “reverses the deficit observed in prepulse inhibition of startle; also recorded: reversed PPI behavior back to normal”. Moreover, the “prepulse inhibition (PPI) of startle” value (listed as Midkine) is reported as “reversed the deficit observed in prepulse inhibition of startle; also recorded: reversed PPI behavior back to normal”.

The record behind these values is patent US20110136738A1, “Alternatively Transcribed Genes Associated with Schizophrenia” (University College Dublin, National University of Ireland, …, priority 2008, published 2011).
